Laboratory results published in US20230391886A1.

Target: MUC18 (target of JM1-24-3 as used in Bio-Layer Interferometry) (Homo sapiens (Human)) (UniProt P43121)
Test: Bio-Layer Interferometry, Octet RED384

- Kd: 1.6 nM
B1: JM1-24-3 (antibody, V domains shown)
VH: MSCKASGYAFTSYWMNWIKERPGQGLEWIGAIDPFNGYTEYNHKFKDKAILTADNSSSTVYMQLSSLTSEDSAVYYCARWGGRLYFDYWGQGTTLTVSS
VL: MTQSPSSMYASLGERVTITCKASQDINSFLSWFQQKPGKSPKTLIYRANRLVDGVPSRFSGSGSGQDYSLTISSLEYEDMGIYYCLQYDEFPYTFGGGTKLEIKR
